6 molecules from patent publication US20210188968A1 (AB2 BIO, published 2021) can be followed below.

Where only a bound is given, the exact number is not on record here.

The Kd is the constant that tells how readily two partners part at equilibrium.

Assay [1] addresses T1, recombinant human interleukin-18 (human, UniProt Q14116 37-193).
T1 construct: Commercially available recombinant human IL-18; also called IL-18; free IL-18
T1 sequence (looked up): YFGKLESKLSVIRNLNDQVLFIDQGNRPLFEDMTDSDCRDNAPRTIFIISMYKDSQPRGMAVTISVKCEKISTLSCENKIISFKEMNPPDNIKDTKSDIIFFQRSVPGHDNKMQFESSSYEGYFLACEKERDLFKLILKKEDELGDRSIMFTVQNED
In words: Luminex, antibody on IL-18 beads. Here is the method: Following immunization, B cells were isolated from spleen and hybridized following standard hybridoma technology. […] The screening was performed in 3 sequential and selective steps: [1253] First step. […] [1254] Second step. […] For this, monoclonal antibodies were bound to Luminex beads carrying IL-18. […] [1255] Third step.

The target of assay [2] is T2, IL-18/IL-18BP complex (human, UniProt Q14116 37-193).
T2 construct: Non-covalent 1:1 complex; In the third screening step IL-18BP was linked to Luminex beads and then complexed to IL-18; also called IL-18 previously complexed to IL-18BP; complex IL-18-IL-18BP
T2 sequence 1: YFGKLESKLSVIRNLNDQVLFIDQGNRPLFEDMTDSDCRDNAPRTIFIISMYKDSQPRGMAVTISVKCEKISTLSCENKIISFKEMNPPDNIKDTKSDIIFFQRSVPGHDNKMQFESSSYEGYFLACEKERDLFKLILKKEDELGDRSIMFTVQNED
T2 sequence 2: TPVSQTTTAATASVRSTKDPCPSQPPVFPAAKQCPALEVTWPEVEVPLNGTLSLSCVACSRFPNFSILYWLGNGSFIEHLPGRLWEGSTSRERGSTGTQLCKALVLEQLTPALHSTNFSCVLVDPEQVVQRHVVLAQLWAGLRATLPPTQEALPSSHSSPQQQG
Description: Luminex, third screening against first screening.

Assay [3] deals with T2, IL-18/IL-18BP complex. In words: Luminex, antibody on IL-18 presented by IL-18BP-linked beads.
The target in assay [4] is T1, recombinant human interleukin-18. Description: titration of antibody with a defined IL-18 molarity; KD from EC50 by Law of Mass Action. Here is the method: (§1) The respective KD values of each monoclonal antibody was calculated following titration of the antibodies with a defined IL-18 molarity and derived from the obtained EC₅₀ values with the Law of Mass Action (see above).

The target is the same in assay [5]. In words: Luminex, biotinylated IL-18BP (competitor) on IL-18 beads pre-complexed with the antibody.
The target is the same in assay [6]. Description: titration of antibody with a defined IL-18 molarity; KD from EC50 by Law of Mass Action; mean. As to the method:
as §1

The target is the same in assay [7]. Description: after clone dilution; method not detailed.
The target is the same in assay [8]. In words: free IL-18 ELISA (IL-18BP-coated plate); 400 pg/mL IL-18 in PBS/5% BSA spiked with 0-10000 pg/mL IL-18BP. Here is the method: A description of the purification protocol is provided in section 6.6.2. Plates are incubated for a period of time at 4° C. and then stabilized with a blocking buffer containing bovine serum albumin or other appropriate blocking agents. Once the reaction is finished, microplates are sealed and stored at 4° C. until used for detection of free IL-18. Microplates can also be dried in a stabilizing solution allowing storage at room temperature and then be reconstituted by hydration when needed for assay.
On the technique in general: An ELISA detects its analyte on a solid surface through an enzyme-linked reagent.

The target is the same in assay [9]. Description: competition in solution: 400 pg/ml IL-18 spiked with rising IL-18BP; remaining free IL-18 detected by ELISA with plate-bound IL-18BP as capture.

B1: Antibody 107C6 (antibody, V domains shown)
VH: QIQLVQSGPELKKPGETVKLSCRASGYTFTNYGMNWVKQAPGKGLKWMGWINTYSGVPTYADDFKGQFAFSLETSAATAFLQINNLKDEDTATYFCAREGYSTTRSMDYWGQGTSVTVSS
VL: DIVMSQSPSSLAVSAGEKVTMSCKSSQSLLDSRTRKNYLVWYQQKPGQSPKLLIYWASTRGSGVPDRFTGSGSGTDFTLTISSVQAEDLAVYYCKQSYNLRTFGGGTKLEIK
notes: Mouse hybridoma monoclonal antibody; also called clone #107C6
In the case of B1, the results for the Fluorescence intensity (in assay [1]; with IL-18/IL-18BP complex [3]) were 26200 fluorescence intensity and 33 fluorescence intensity, respectively. For the same molecule, the “fold inhibition of binding on IL-18 complexed to IL-18BP against binding on IL-18” value (“fold inhibition of binding” below) with IL-18/IL-18BP complex [2] is more than 500 fold. The Kd in assay [4] and in assay [6] was less than 2 pM each time. Further, the “Fluorescence intensity of IL-18BP binding” value in [5] is 1390 fluorescence intensity.

B2: Antibody 108F8 (antibody, V domains shown)
VH: QIQLVQSGPDSKKPGETVKLSCRASGYTFTNYGMNWVKQAPGKGLKWMGWINTYSGVPTYADDFKGQFAFSLETSAATAFLQINNLKDEDTATYFCAREGYSTTRSMDYWGQGTSVTVSS
VL: DIVMSQSPSSLAVSAGEKVTMSCKSSQSLLDSRTRKNYLVWYQQKPGQSPKLLIYWASTRGSGVPDRFTGSGSGTDFTLTISSVQAEDLAVYYCKQSYNLRTFGGGTKLEIK
notes: Mouse hybridoma monoclonal antibody
Turning to B2, the Fluorescence intensity is 25100 fluorescence intensity in [1] and 45 fluorescence intensity in the assay with IL-18/IL-18BP complex [3]. Further, the “fold inhibition of binding” value in the assay with IL-18/IL-18BP complex [2] is more than 500 fold. Further, the Kd in assay [4] and in assay [6] was less than 2 pM each time. Besides, the “Fluorescence intensity of IL-18BP binding” value in assay [5] was found to be 1290 fluorescence intensity.

B3: Antibody 109A6 (antibody, V domains shown)
VH: EVQLQQSGAELVKPGASVKLSCTASGFKIKDTYIHWVIQRPAQGLEWIGRIDPANGNTIYGSKFQGKATLTADTSSNTAYIHLSSLTSGDSAVYYCAGYVWFAYWGQGTLVTVSA
VL: DVVMTQVPLSLPVSLGDQASISCRSSQRLVHSNGNTYLHWFLQKPGQSPKLLIYTVSNRFSGVPDRFSGSGSGTDFTLKISRVEAEDLGVYFCSQSTLVPWTFGGGTKLEIK
notes: as for B2
For B3, the Fluorescence intensity came to 25800 fluorescence intensity in [1] and 33 fluorescence intensity with IL-18/IL-18BP complex [3]. Besides, the “fold inhibition of binding” value with IL-18/IL-18BP complex [2] is more than 500 fold. In addition, the dissociation constant (Kd) in assay [4] and in [6] was 10 pM in each case. Further, the “Fluorescence intensity of IL-18BP binding” value in assay [5] was found to be 913 fluorescence intensity.

B4: Antibody 131B4-2 (antibody, V domains shown)
VH: EVQLQQSGAELVKPGASVKLSCTASGFKIKDTYIHWLKQRPEQGLEWIGRIDPANGNTIYGSKFQGKATITADTSSNTAYIQLSSLTSGDTAVYFCAGYVWFAYWGQGTLVTVSA
VL: DAVLTQTPLSLPVSLGDQASISCTSSQSLVHSNGNTYLHWYLQKPGQSPKLLIYKVSDRFSGVPDRFSGSGSGTDFTLMITRVEAEDLGVYFCSQSSLVPWTFGGGTKLEVK
notes: Mouse monoclonal antibody obtained on clone dilution
As to B4, the binding result in assay [7] was “binds”.

B5: recombinant human IL-18 Binding Protein (r-hIL-18BP), isoform a (other)
chain: TPVSQTTTAATASVRSTKDPCPSQPPVFPAAKQCPALEVTWPEVEVPLNGTLSLSCVACSRFPNFSILYWLGNGSFIEHLPGRLWEGSTSRERGSTGTQLCKALVLEQLTPALHSTNFSCVLVDPEQVVQRHVVLAQLWAGLRATLPPTQEALPSSHSSPQQQG
notes: It was biotinylated in the second screening step and linked to Luminex beads in the third; also called human IL-18BP; IL-18BPa
Consider B5, for which, in assay [8], the “molar ratio IL-18BP/IL-18 at which free IL-18 is near background” value is approximately 15 fold. For the same molecule, in assay [9], the “IC50 (read off the curve)” value was approximately 2 ng/mL.

B6: Antibody 132H4 (antibody, V domains shown)
VH: EVKLVESGGGLVKPGGSLKLSCAASGFTFSNYAMSWVRQNPAKRLEWVATISSGGANIYYPDSVKGRFIISRDNARNTLYLQMSSLRSEDTAMYYCARGDYFNHFWFAYWGQGTLVTVSA
VL: DVLMTQTPLSLPVSLGDQASISCRSSQSIVHSNGNTYLEWYLQKPGQSPKFLIYKVSNRFSGVPDRFSGSGSGTDFTLKINRVEAEDLGIYYCFQGSHVPWTFGGGTKLEIK
notes: as for B2
In the case of B6, the Fluorescence intensity in assay [1] came out at 23800 fluorescence intensity; with IL-18/IL-18BP complex [3], 28 fluorescence intensity. In the assay with IL-18/IL-18BP complex [2], the “fold inhibition of binding” value was more than 500 fold. The Kd in [4] and in [6] was 5 pM in each case. In addition, the “Fluorescence intensity of IL-18BP binding” value in [5] was determined as 1490 fluorescence intensity.
